This is an account of results in patent US20080112961A1 (MacroGenics, published 2008).

Changes are numbered by the printed parent chain. Names and notes keep the numbering of the source.

Sequences and labels used below:
B1: ch4-4-20 A231V, Q386H, V412M (antibody)
heavy: ASTKGPSVFPLAPSSKSTSGGTAALGCLVKDYFPEPVTVSWNSGALTSGVHTFPAVLQSSGLYSLSSVVTVPSSSLGTQTYICNVNHKPSNTKVDKKVEPKSCDKTHTCPPCPVPELLGGPSVFLFPPKPKDTLMISRTPEVTCVVVDVSHEDPEVKFNWYVDGVEVHNAKTKPREEQYNSTYRVVSVLTVLHQDWLNGKEYKCKVSNKALPAPIEKTISKAKGQPREPQVYTLPPSRDELTKNQVSLTCLVKGFYPSDIAVEWESNGHPENNYKTTPPVLDSDGSFFLYSKLTMDKSRWQQGNVFSCSVMHEALHNHYTQKSLSLSPGK
B2: ch4-4-20 F275I, K334N, V348M (antibody)
heavy: B1 heavy with V114A, F158I, K217N, V231M, H269Q, M295V
B3: ch4-4-20 F243L, V305I, A378D, F404S, P396L (antibody)
heavy: B1 heavy with V114A, F126L, V188I, A261D, H269Q, P279L, F287S, M295V
notes: also called MgFc54
B4: ch4-4-20 F275L, Q362H, N384K, P396L (antibody)
heavy: B1 heavy with V114A, F158L, Q245H, N267K, H269Q, P279L, M295V
B5: ch4-4-20 K290T, N390I, P396L (antibody)
heavy: B1 heavy with V114A, K173T, H269Q, N273I, P279L, M295V
B6: ch4-4-20 K290E, V369A, T393A, P396L (antibody)
heavy: B1 heavy with V114A, K173E, V252A, H269Q, T276A, P279L, M295V
B7: ch4-4-20 K326I, S408N, P396L (antibody)
heavy: B1 heavy with V114A, K209I, H269Q, P279L, S291N, M295V
B8: ch4-4-20 K222N, T335N, K370E, A378V, T394M (antibody)
heavy: B1 heavy with K105N, V114A, T218N, K253E, A261V, H269Q, T277M, M295V
B9: ch4-4-20 R301H, K340E, D399E (antibody)
heavy: B1 heavy with V114A, R184H, K223E, H269Q, D282E, M295V
B10: ch4-4-20 P343S, P353L, S375I, S383N (antibody)
heavy: B1 heavy with V114A, P226S, P236L, S258I, S266N, H269Q, M295V
B11: ch4-4-20 K326Q, K334E, T359N, T366S (antibody)
heavy: B1 heavy with V114A, K209Q, K217E, T242N, T249S, H269Q, M295V
B12: ch4-4-20 P247L, W313R, E388G (antibody)
heavy: B1 heavy with V114A, P130L, W196R, H269Q, E271G, M295V
B13: ch4-4-20 P247L, A431V, S442F (antibody)
heavy: B1 heavy with V114A, P130L, H269Q, M295V, A314V, S325F
B14: ch4-4-20 K246R, S298N, I377F (antibody)
heavy: B1 heavy with V114A, K129R, S181N, I260F, H269Q, M295V
B15: ch4-4-20 P244H, L358M, V379M, N384K, V397M (antibody)
heavy: B1 heavy with V114A, P127H, L241M, V262M, N267K, H269Q, V280M, M295V
B16: ch4-4-20 K334E, T359N, T366S, Q386R (antibody)
heavy: B1 heavy with V114A, K217E, T242N, T249S, H269R, M295V
B17: ch4-4-20 T335N, K370E, A378V, T394M, S424L (antibody)
heavy: B1 heavy with V114A, T218N, K253E, A261V, H269Q, T277M, M295V, S307L
B18: ch4-4-20 P247L, I253N, K334N (antibody)
heavy: B1 heavy with V114A, P130L, I136N, K217N, H269Q, M295V
B19: ch4-4-20 D221Y, M252I, A330G, A339T, T359N, V422I, H433L (antibody)
heavy: B1 heavy with D104Y, V114A, M135I, A213G, A222T, T242N, H269Q, M295V, V305I, H316L
B20: ch4-4-20 T256S, V305I, K334E, N390S (antibody)
heavy: B1 heavy with V114A, T139S, V188I, K217E, H269Q, N273S, M295V
B21: ch4-4-20 V273I, K326E, L328I, P396L (antibody)
heavy: B1 heavy with V114A, V156I, K209E, L211I, H269Q, P279L, M295V
B22: ch4-4-20 P291S, K288E, H268L, A141V (antibody)
heavy: B1 heavy with A24V, V114A, H151L, K171E, P174S, H269Q, M295V
B23: ch4-4-20 D280E, S354F, A431D, L441I (antibody)
heavy: B1 heavy with V114A, D163E, S237F, H269Q, M295V, A314D, L324I
B24: ch4-4-20 N315I, V379M, T394M (antibody)
heavy: B1 heavy with V114A, N198I, V262M, H269Q, T277M, M295V
B25: ch4-4-20 F243L, R255L, E318K (antibody)
heavy: B1 heavy with V114A, F126L, R138L, E201K, H269Q, M295V
B26: ch4-4-20 K246N, Q419R, P396L (antibody)
heavy: B1 heavy with V114A, K129N, H269Q, P279L, M295V, Q302R
B27: ch4-4-20 P247L, A330T, S440G (antibody)
heavy: B1 heavy with V114A, P130L, A213T, H269Q, M295V, S323G
B28: ch4-4-20 A378V, N390I, V422I (antibody)
heavy: B1 heavy with V114A, A261V, H269Q, N273I, M295V, V305I
B29: ch4-4-20 C229Y, A287T, V379M, P396L, L443V (antibody)
heavy: B1 heavy with C112Y, V114A, A170T, V262M, H269Q, P279L, M295V, L326V
B30: ch4-4-20 V303I, V369F, M428L (antibody)
heavy: B1 heavy with V114A, V186I, V252F, H269Q, M295V, M311L
B31: ch4-4-20 P244A, K326I, C367R, S375I, K447T (antibody)
heavy: B1 heavy with V114A, P127A, K209I, C250R, S258I, H269Q, M295V, K330T
B32: ch4-4-20 K246E, V284M, V308A (antibody)
heavy: B1 heavy with V114A, K129E, V167M, V191A, H269Q, M295V
B33: ch4-4-20 E269K, K290N, Q311R, H433Y (antibody)
heavy: B1 heavy with V114A, E152K, K173N, Q194R, H269Q, M295V, H316Y
B34: ch4-4-20 K246I, Q362H, K370E (antibody)
heavy: B1 heavy with V114A, K129I, Q245H, K253E, H269Q, M295V
B35: ch4-4-20 K334E, E380D, G446V (antibody)
heavy: B1 heavy with V114A, K217E, E263D, H269Q, M295V, G329V
B36: ch4-4-20 T215P, K274N, A287G, K334N, L365V, P396L (antibody)
chain: PEPKSCDKTHTCPPCPAPELLGGPSVFLFPPKPKDTLMISRTPEVTCVVVDVSHEDPEVNFNWYVDGVEVHNGKTKPREEQYNSTYRVVSVLTVLHQDWLNGKEYKCKVSNKALPAPIENTISKAKGQPREPQVYTLPPSRDELTKNQVSVTCLVKGFYPSDIAVEWESNGQPENNYKTTPLVLDSDGSFFLYSKLTVDKSRWQQGNVFSCSVMHEALHNHYTQKSLSLSPGK
B37: ch4-4-20 K317N, F423-deleted (antibody)
chain: EPKSCDKTHTCPPCPAPELLGGPSVFLFPPKPKDTLMISRTPEVTCVVVDVSHEDPEVKFNWYVDGVEVHNAKTKPREEQYNSTYRVVSVLTVLHQDWLNGNEYKCKVSNKALPAPIEKTISKAKGQPREPQVYTLPPSREEMTKNQVSLTCLVKGFYPSDIAVEWESNGQPENNYKTTPPVLDSDGSFFLYSKLTVDKSRWQQGNVSCSVMHEALHNHYTQKSLSLSPGK

The target of one test is T1, FcγRIIIA (form not stated) (UniProt P08637 17-208, limits assumed).
T1 construct: also called FcγRIIIA (ELISA)
T1 sequence (P08637 17-208 F176V limits assumed, form in doubt): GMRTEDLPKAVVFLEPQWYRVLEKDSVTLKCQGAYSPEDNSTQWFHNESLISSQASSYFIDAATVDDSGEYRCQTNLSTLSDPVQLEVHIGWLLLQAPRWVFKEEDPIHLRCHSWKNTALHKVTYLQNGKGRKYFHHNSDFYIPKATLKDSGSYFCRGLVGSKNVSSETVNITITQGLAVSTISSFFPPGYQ
Put plainly: ELISA. In general terms: ELISA stands for enzyme-linked immunosorbent assay.
For the molecule B1, the “fold increase vs WT” value came to 1.5 x.
For B2, the “fold increase vs WT” value amounted to 0.5 x.
Consider B3, for which the “fold increase vs WT” value was found to be 1.6 x.
Same read-out and setting: then B4, with 2.2 x; and B5, with 2.8 x; and B6, with 1.3 x.
Still for that read-out and setting: then B7, with 4 x.
B8: the “fold increase vs WT” value turned out to be 1 x.
Regarding B9, the “fold decrease vs WT” value was 0.5 x.
Turning to B10, the “fold increase vs WT” value turned out to be 0.5 x.
Same read-out and setting: then B11, with 1.5 x; and B12, with 1.5 x.
In the case of B13, the “fold vs WT” value is 1 x.
For the molecule B14, the “fold increase vs WT” value was found to be 1 x.
On to B15, for which the “fold increase vs WT” value was determined as 1.75 x.
As for B16, the “fold increase vs WT” value was determined as 1 x.
B17: the “fold increase vs WT” value turned out to be 0.5 x.
Still for that read-out and setting: then B18, with 3 x; and B19, with 2.5 x.
Same read-out and setting: next, B20: 1.5 x; B21: 1.3 x.
B22: the “fold decrease vs WT” value stood at 0.5 x.
B23: the “fold increase vs WT” value came to 3 x.
The same measure, in the same setting: next, B24: 1 x; B25: 1 x; B26: 1.1 x.
On the same count and under the same terms, next, B27: 0.75 x; B28: 0.5 x.

Another test concerns the target T2, FcγRIIB (form not stated) (UniProt P31994 43-217, limits assumed).
T2 construct: also called FcγRIIB (ELISA)
T2 sequence (looked up): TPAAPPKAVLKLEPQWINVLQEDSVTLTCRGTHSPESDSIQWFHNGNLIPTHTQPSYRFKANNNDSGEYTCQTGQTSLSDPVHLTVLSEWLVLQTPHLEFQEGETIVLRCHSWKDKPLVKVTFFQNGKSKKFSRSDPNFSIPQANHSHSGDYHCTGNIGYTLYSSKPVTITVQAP
Put plainly: ELISA.
In the case of B1, the “fold increase vs WT” value is 6 x.
On the same count and under the same terms, next, B29: 10 x.
Consider B30, for which the binding result was “no binding”.
On the same count and under the same terms, then B2, with “binds”.
Turning to B3, the “fold increase vs WT” value is 5.4 x.
On the same count and under the same terms, then B4, with 3.7 x; and B5, with 6.1 x.
As for B6, the “fold increase vs WT” value was 6.7 x.
Turning to B7, the “fold increase vs WT” value was determined as 9.3 x.
Still for that read-out and setting: then B8, with 7 x.
For the molecule B9, the “fold decrease vs WT” value was found to be 0.25 x.
On to B10, for which the “fold increase vs WT” value was found to be 6 x.
The same measure, in the same setting: then B11, with 5 x; and B12, with 1 x; and B31, with 3 x.
In the case of B13, the binding result is “binds”.
For the molecule B14, the “fold increase vs WT” value was found to be 5 x.
For the molecule B15, the “fold increase vs WT” value is 1.5 x.
B16: the binding result is reported as “binds”.
Still for that read-out and setting: then B17, with “binds”.
With B18, the “fold increase vs WT” value was 2.5 x.
Still for that read-out and setting: then B19, with 6 x.
As for B20, the binding result was “binds”.
As to B21, the “fold increase vs WT” value was determined as 10.8 x.
Regarding B32, the binding result was “no binding”.
With B23, the binding result is given as “binds”.
Still for that read-out and setting: next, B33: “no binding”.
Take B24: the “fold increase vs WT” value came out at 9 x.
On the same count and under the same terms, next, B26: 4.8 x.
For B34, the “fold decrease vs WT” value is 0.5 x.
With B35, the binding result is “no binding”.
For the molecule B27, the “fold decrease vs WT” value was determined as 0.25 x.
For B28, the “fold increase vs WT” value was determined as 5 x.
On the same count and under the same terms, next, B36: 4 x.
On the same count and under the same terms, next, B37: 7 x.
